Results reported in patent publication US20020106678A1 (published 2002).

Columns and labels:
[1] = molecular target: T1, human G protein β2 subunit (human, UniProt P62879 1-340); experiment: tryptic proteolysis protection assay of co-translated β and γ subunits (βγ dimer formation)
Method: (§1) βγ interaction was assessed by a tryptic proteolysis assay. Plasmid DNA (1 μg) for each of the β and γ subunits were co-transcribed and co-translated in the TNT-coupled rabbit reticulocyte lysate system (Promega, Madison, Wis.). The plasmid DNA for each of the γ subunits was linearized to limit the generation of translated products of higher molecular weight. […] To increase levels of the γ₁₀ and γ₁₁ subunits 2 μg of capped RNA were added to the co-transcribed β-γ mix. Alternatively, γ₁₀ and γ₁₁ subunits that had been translated separately were added to the co-translated β-γ mix. For tryptic digestion, 5 or 10 μl aliquots of the co-translated β-γ mix were digested by addition of 1 μl trypsin (1 μg) in a final volume of 20 μl (with 50 mM Na-HEPES, pH 8.0) After incubation for 1 hour at 30° C., the digestions were stopped by addition of Laemmli sample buffer and boiling for 3 minutes. Protected fragments of β were visualized by running samples on 15% SDS-PAGE gels. After electrophoresis, gels were fixed in 40% methanol/10% acetic acid mix, soaked in ENHANCE (DuPont-NEN, Boston, Mass.), and dried. The dried gels were exposed for 8 to 48 hours at −80° C.

[2] = molecular target: T1, human G protein β2 subunit; experiment: tryptic proteolysis protection assay of co-translated β and γ subunits (rabbit reticulocyte lysate, SDS-PAGE)
Method: as §1

T1 sequence (P62879 whole entry): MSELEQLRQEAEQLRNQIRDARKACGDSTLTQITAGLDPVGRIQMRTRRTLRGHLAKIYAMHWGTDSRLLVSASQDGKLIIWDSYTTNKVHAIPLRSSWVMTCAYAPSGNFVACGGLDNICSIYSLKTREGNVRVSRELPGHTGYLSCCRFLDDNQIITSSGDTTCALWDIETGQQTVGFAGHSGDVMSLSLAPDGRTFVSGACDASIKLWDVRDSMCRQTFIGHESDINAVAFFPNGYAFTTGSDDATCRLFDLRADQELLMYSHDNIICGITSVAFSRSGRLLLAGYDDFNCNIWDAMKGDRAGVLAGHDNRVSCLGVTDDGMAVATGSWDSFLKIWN

Row | binding result [1] | binding result [2] | Binder
1 | binds |  | human G protein γ4 subunit (other, modified by a geranylgeranyl group (residue not stated)) MKEGMSNNSTTSISQARKAVEQLKMEACMDRVKVSQAAADLLAYCEAHVREDPLIIPVPASENPFREKKFFCTIL
2 |  | no binding | human G protein γ11 subunit (other, modified by a farnesyl group (residue not stated)) MPALHIEDLPEKEKLKMEVEQLRKEVKLQRQQVSKCSEEIKNYIEERSGEDPLVKGIPEDKNPFKEKGSCVIS
